Reference: the RNAGym collection of RNA variant scans (doi:10.1073/pnas.2313332121)

B1: TPR t1 (parent)
chain: GACCAAUCUGCCCUCAGAGCUCGAGAACAUCUUCGGAUGCAGAGGAGGCAGGCUUCGGUGGCGCGAUAGCGCCAACGUCCUCAACCUCCAAUGCAUCCCACCACAUGAUGAUGCCUGAAGAGCCUUGGUUUUUUG

Variants of: B1
Assay: polymerase ribozyme fitness, log enrichment relative to wild type (log ratio); higher = more active; in vitro selection for triplet polymerase activity
Summary of the method: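 A heterodimeric triplet polymerase ribozyme had each of its subunits mutagenized by PCR into a library, which was transcribed. One round of in vitro selection, done in triplicate, annealed each library with a biotinylated primer, its partner subunit and triplets, then incubated it frozen at −7 °C before gel excision of extended constructs, streptavidin-bead capture and RT-PCR. Fitness is the logarithm of genotype enrichment relative to wild-type enrichment, based on Illumina sequencing of inputs and outputs and inverse-variance-weighted replicate averages. A base-2 logarithm is used, and genotypes were kept only with ≥10 input reads and ≥1 read per output.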

Row | Variant | polymerase ribozyme fitness (log ratio)
1 | G77U U92G C124U | -1.84
2 | A75U C104U U106A | -0.439
3 | U78C U112A G113A G122C U130C | -1.11
4 | C79U G113A | -1.38
5 | C80U C102A | -2.21
6 | C80A U130C | -2.51
7 | C73A C104A A108G U112A A118G G122U | -5.56
8 | C76A A84U U106A G120U | -2.24
9 | U81A G110A | -2.37
10 | U78G C86U | -0.465
11 | A74U G113U | -3.37
12 | A74U G113A | -1.11
13 | C76G C85A U132C | -0.689
14 | G77A C89A | -1.73
15 | U78C C102G | -5.35
16 | U78C C101A | -0.679
17 | U78G C97U U116C A121U U131A | 0.0734
18 | U78C U81G | -3.03
19 | U78C U81C | -0.434
20 | C80U | -0.463
21 | C80G | -5.78
22 | C80A | -2.86
23 | G77A U81A | -1.01
24 | A74U A95U | -0.222

Row | Variant | polymerase ribozyme fitness (log ratio)
25 | U78C C115U | 0.0691
26 | G77U U92G | -2.77
27 | A74G C101U | 0.132
28 | A74U G117A U130C | -2.62
29 | A74U A83U A84C G120U G122A U125A | -1.84
30 | C76U C97U | -0.795
31 | G77U A84G C85G | -2.45
32 | G77A A83C C86U U116A G120C U125A | -1.96
33 | C80U A90U | -0.991
34 | A74U C99G U106A | -6.33
35 | U78C G120A | 0.768
36 | U78G C85A G120A | -0.262
37 | C80U U112G G117C | -5.23
38 | C79A U131C | -0.838
39 | C73A C88U C99A A100C | -3.87
40 | G77A U78C A105C A121C | -1.42
41 | C80U U112A | 0.959
42 | C73G A90G G113U A118C | -5.26
43 | U78A G120A | 0.814
44 | A75G U129C | -0.465
45 | U78C C124G | 1.08
46 | C76G A95G | -0.229
47 | C76G U78C G135U | -1.36
48 | A75U G128A | -1.64

Row | Variant | polymerase ribozyme fitness (log ratio)
49 | C76G C82U | -0.815
50 | C76G U87G | -0.0658
51 | U81C A121G | 0.253
52 | C79A U92C C98G C104A C114G | -7.71
53 | U81A U129C | -1.37
54 | G77C C97U U109A | -5.64
55 | C76A A95U C115U | -4.9
56 | C80A C82U A83U C101G | -5.83
57 | C73U C79G G113U | -5.88
58 | U78C U116G | -2.79
59 | C73U C80U | -0.17
60 | C80U U106C | -0.325
61 | A75U C85A U92C G113C | -3.69
62 | C79U A95C A118U | -0.263
63 | C80U U109C | -3.85
64 | U78G A111U U131A | -2.99
65 | C79U G110U G120C G122A | -4.4
66 | G77U C79A | -2.32
67 | C73U C76A A103U G120C | -5.45
68 | C76U C88U | -0.561
69 | G77C C89G G122U C123U | -1.58
70 | C73G U81A C85U C115U | -5.48
71 | C76G U78A U81A C89G A119U | -3.52
72 | C73A C102U U125G | -2.45

Row | Variant | polymerase ribozyme fitness (log ratio)
73 | C73U A90G C124A | 1.85
74 | C79U C89A C115A | -0.609
75 | U81A C86G | -1.48
76 | C73A C123U | 1.47
77 | C76A C85A | -0.928
78 | A74U C89U | -0.535
79 | C79G C82G U92A A121G | -5.59
80 | C79A G93U | -2.82
81 | C79U C94A C102A G120C | -2.46
82 | U78C U132C | -0.13
83 | C73U G93C C124U U125C | -1.39
84 | C79A A100C | -2.29
85 | U78C U112A A118U | 1.17
86 | U81A C88U | -0.655
87 | C80G A119U | -2.85
88 | G77C C102U | -2.02
89 | U78C C99A U106C | -4.95
90 | A74U U130G | -0.154
91 | C76G G77U U78G U112C | 2.21
92 | C73A U81G C88A U112G C115A U125A | -5.14
93 | C73A G77A | -0.332
94 | U78C | -0.247
95 | U78A | -0.254
96 | U78G | -0.246

Row | Variant | polymerase ribozyme fitness (log ratio)
97 | A75G U116A G117U C123U | -2.78
98 | C80U G117C | -3.58
99 | C79A G117C | -5.12
100 | C79A G117A | -2.46
101 | U78G C86U U133A | -0.63
102 | G77U G128C | -3.09
103 | C73U G120C | 1.2
104 | C76G C101A | -3.2
105 | C73U U87A C115A | -0.423
106 | C73U U96A A108G C114A | -5.25
107 | A75G U106G C124A | 0.661
108 | C73G C115A | -1.04
109 | A74G C98G | -6.09
110 | U78C G110U | -1.27
111 | C80U G93C | -1.44
112 | C79U C104A | -2.22
113 | C73U G113A G117A | -6.9
114 | C73U A100U G110A | -1.9
115 | A75G C88A C104A U112A | -1.1
116 | C79U C99A U112C | -4.18
117 | G77C A95U | -0.809
118 | U81C C114U | -1.96
119 | G77A C79U | 0.354
120 | C73A U78C | -0.268

Row | Variant | polymerase ribozyme fitness (log ratio)
121 | C79G U92C | -3.03
122 | C80U U131A | -0.732
123 | U78G C82G C99A U112G G128U | -6.81
124 | C73G U92A | -5.66
125 | C79G C124G U125A | -4.24
126 | U78A A105G | -2.86
127 | A75G C85U U130C | -0.982
128 | G77A C101A | -1.18
129 | C73U C85G | -2.85
130 | C73U C85U | -0.444
131 | G77U A91U | -2.18
132 | A75G U112A U131A | 1.22
133 | A74U U116G U133G | -2.9
134 | C76U A90G C115A | -0.0334
135 | C73A G127U | -0.602
136 | A74G C123G | 1.31
137 | A74G C123U | 1.13
138 | C73U U81A U116G U125A | -4.02
139 | U78G C86G U112A C124G G135U | -1.2
140 | C76A G110A | -1.79
141 | C79U C82A U87A G110C | -4.6
142 | C76A A119G | 0.169
143 | G77U C114G | -2.88
144 | U78C U81A U87G C123G | 1.68

Row | Variant | polymerase ribozyme fitness (log ratio)
145 | C79A C85A A119U | -5.64
146 | G77A A95C | -0.839
147 | A74U C85U C94A | -1.55
148 | C73A G128A | -2.12
149 | U78C A91G G93U | -2.35
150 | C73U C102U U131C | -1.19
151 | U78C U126C U129C | -2.29
152 | C73U G107A A108G G120A C124A | -3.12
153 | U81C C124A | 0.431
154 | C73G G120C | 0.461
155 | C79A C88U | -1.33
156 | U78C U87C | 0.532
157 | U78C U87A | 1.12
158 | U78C U87G | 0.287
159 | C73G C123U | 0.00475
160 | U78A A100C | -1.08
161 | C79U G93U | -1.77
162 | A74G C114G | -2.02
163 | U78C C85G U129C | -2.13
164 | C80A U112A | -2.64
165 | G77U A105G | -2.9
166 | G77U U106C C124A | -3.43
167 | G77C C104A U116G G122A | -5.01
